Reference: paper PMC11616004, “Metabolite phosphatase from anhydrobiotic tardigrades” (The Febs Journal, 2024)

What was measured:
DRB0118 = molecular target: T1, DRB0118 (Deinococcus radiodurans, UniProt Q9RZK8); assay: malachite green phosphate release; type: biochemical; conditions: 1 mM substrate, 20 mM Tris-HCl pH 8.0, 37 °C, 1 h; MBP fusion
T1 construct: gene DR_B0118; residues 58-337, signal peptide removed; N-terminal MBP fusion kept, 6xHis cut by TEV; codon-optimized, E. coli BL21(DE3); mainly dimer in solution
T1 sequence (Q9RZK8 58-337): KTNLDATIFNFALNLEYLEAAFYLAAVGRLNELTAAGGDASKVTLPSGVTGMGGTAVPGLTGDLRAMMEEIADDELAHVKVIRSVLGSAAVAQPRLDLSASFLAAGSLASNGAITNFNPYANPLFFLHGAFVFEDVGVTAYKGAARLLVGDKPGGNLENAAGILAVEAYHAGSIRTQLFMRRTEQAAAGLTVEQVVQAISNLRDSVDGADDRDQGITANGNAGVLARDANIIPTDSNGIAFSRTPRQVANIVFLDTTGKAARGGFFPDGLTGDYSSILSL

[1] = molecular target: the molecule itself; assay: native gel or EMSA; high‐resolution clear native PAGE of the purified sample (EzApply Native, EzStandard Native, EzRun ClearNative, ATTO)
[2] = molecular target: the molecule itself; assay: crystal structure; sitting-drop vapor diffusion at 20 °C, RvFeMP‐1 at 10 mg/mL; conditions A (MES pH 6.0, PEG 20000), B (MgCl2, Tris–HCl pH 8.2, PEG 4000) and C (sodium thiocyanate, sodium acetate pH 4.0, PEG4000); dimer of two protomers

## O=[N+]([O-])c1ccc(OP(=O)(O)O)cc1 [pNPP, p-nitrophenyl phosphate]
DRB0118
  activity (nmol/min/mg): can also function as a phosphatase and the activity toward pNPP was higher

B1: MBP‐DRB0118 (DRB0118 residues 58–337 fused to maltose‐binding protein) (enzyme, Deinococcus radiodurans R1)
chain: KTNLDATIFNFALNLEYLEAAFYLAAVGRLNELTAAGGDASKVTLPSGVTGMGGTAVPGLTGDLRAMMEEIADDELAHVKVIRSVLGSAAVAQPRLDLSASFLAAGSLASNGAITNFNPYANPLFFLHGAFVFEDVGVTAYKGAARLLVGDKPGGNLENAAGILAVEAYHAGSIRTQLFMRRTEQAAAGLTVEQVVQAISNLRDSVDGADDRDQGITANGNAGVLARDANIIPTDSNGIAFSRTPRQVANIVFLDTTGKAARGGFFPDGLTGDYSSILSL
notes: DRB0118 of Deinococcus radiodurans R1, residues 58–337, without the signal peptide region; codon-optimised synthetic DNA; The MBP carrier (amplified from pMAL‐c5X) stands N-terminal of DRB0118 and was kept; After TEV cleavage one G of the site probably stays before MBP (surmised); source: E. coli BL21(DE3), purified (HiTrap TALON, TEV protease, HisTrap flowthrough, Superdex 200 SEC); not shown: …
[1]
  stoichiometry N: 2

B2: RvFeMP‐1 (Ramazzottius varieornatus Ferritin‐like metabolite phosphatase 1), residues 21–316 (enzyme)
chain: GGNRGMSRNQDAYAEKMDMTLDALNFLLGVEHLASAFYVQAVNNFTADDFKAAGLAQRDYDQFVGVRNNEVDHRDTLISVIKSLGGKPNPPCKYTFPVTDVASVLKVSRTLENADKPAYLGALRDIKSVELRTSVQGALSGDSAHAAFFAYLTGKAPAPGPVDGPLTQRHIATLAQDFIVSCPYPAPKPFPKLTLSPQSGPVGTVVATTCAQDVDTNGVMCAIISGNQGTLMQRPGQAKDGSGAATCTIPPGVKGILFIAWVRGRDVLNVGVDDSSTVCGPNYFLLSALGDAVPGV
notes: RvFeMP‐1 (RvY_06210 product) of Ramazzottius varieornatus strain YOKOZUNA‐1, residues 21–316, without the predicted 20-residue secretory signal peptide; After TEV cleavage one G of the recognition site probably stays at the N-terminus (surmised); also called RvY_06210 product; Tar‐fer; source: E. coli Shuffle T7, purified (HiTrap TALON, TEV protease, HisTrap flowthrough, Superdex 200 SEC); not …
[2]
  binding result: binds
